Results from article PMC9482650, “Quantitative fragmentomics allow affinity mapping of interactomes” (Nature Communications, 2022).

Assays:
Test in all cases: holdup assay
Set-up in all cases: key: below the threshold = too weak to quantify, mostly under pKd 3.1 to 4
[1] = molecular target: DLG1_1, Q12959
[2] = molecular target: FRMPD4, Q14CM0
[3] = molecular target: IL16_3, Q14005
[4] = molecular target: GRIP2_7, Q9C0E4
[5] = molecular target: Inadl_5, Q8NI35
[6] = molecular target: T1, PDZD7_3, Q9H5P4
T1 sequence (Q9H5P4 857-944, limits assumed, looked up): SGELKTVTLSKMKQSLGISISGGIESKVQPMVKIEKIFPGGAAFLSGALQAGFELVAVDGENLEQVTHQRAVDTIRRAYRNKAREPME

[7] = molecular target: MAGI3_2, Q5TCQ9
[8] = molecular target: T2, LIN7A, O14910
T2 sequence (O14910 103-200, limits assumed, looked up): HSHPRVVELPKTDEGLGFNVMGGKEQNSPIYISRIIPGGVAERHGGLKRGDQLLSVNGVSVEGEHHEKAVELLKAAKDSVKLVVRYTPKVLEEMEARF

[9] = molecular target: T3, ARHGAP21, Q5T5U3
T3 sequence (Q5T5U3 45-169, limits assumed, looked up): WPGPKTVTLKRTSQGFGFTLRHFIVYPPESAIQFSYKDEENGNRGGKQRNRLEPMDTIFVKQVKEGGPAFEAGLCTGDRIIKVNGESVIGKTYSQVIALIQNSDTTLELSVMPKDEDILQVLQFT

[10] = molecular target: GRASP, Q7Z6J2
[11] = molecular target: T4, LIN7B, Q9HAP6
T4 sequence (Q9HAP6 88-185, limits assumed, looked up): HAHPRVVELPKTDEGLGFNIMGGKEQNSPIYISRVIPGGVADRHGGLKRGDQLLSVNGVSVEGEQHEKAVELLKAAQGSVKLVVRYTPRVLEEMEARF

[12] = molecular target: GRIP2_5, Q9C0E4
[13] = molecular target: T5, PARD3B_1, Q8TEW8
T5 sequence (Q8TEW8 196-299, limits assumed, looked up): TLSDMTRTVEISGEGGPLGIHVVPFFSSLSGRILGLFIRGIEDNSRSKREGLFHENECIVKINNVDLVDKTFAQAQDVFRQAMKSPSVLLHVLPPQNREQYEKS

[14] = molecular target: MAST2, Q6P0Q8
[15] = molecular target: DLG2_2, Q15700
[16] = molecular target: GRIP2_3, Q9C0E4
[17] = molecular target: DLG1_2, Q12959
[18] = molecular target: DLG1_3, Q12959
[19] = molecular target: LDB3, O75112
[20] = molecular target: T6, PCLO, Q9Y6V0
T6 sequence (Q9Y6V0 4491-4600, limits assumed, looked up): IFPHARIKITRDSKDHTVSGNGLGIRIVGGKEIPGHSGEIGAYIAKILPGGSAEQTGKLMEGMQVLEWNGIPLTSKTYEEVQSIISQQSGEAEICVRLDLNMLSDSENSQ

[21] = molecular target: TJP1_3, Q07157
[22] = molecular target: T7, DLG3_3, Q92796
T7 sequence (Q92796 374-475, limits assumed, looked up): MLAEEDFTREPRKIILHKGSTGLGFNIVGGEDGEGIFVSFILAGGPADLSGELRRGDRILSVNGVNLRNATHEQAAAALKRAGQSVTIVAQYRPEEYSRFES

[23] = molecular target: T8, TX1BP3, O14907
T8 sequence (O14907 10-122, limits assumed, looked up): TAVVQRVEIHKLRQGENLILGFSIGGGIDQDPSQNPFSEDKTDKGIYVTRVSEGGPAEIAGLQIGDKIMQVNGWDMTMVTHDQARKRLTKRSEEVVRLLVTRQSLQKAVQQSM

[24] = molecular target: T9, SNTG2, Q9NY99
T9 sequence (Q9NY99 68-166, limits assumed, looked up): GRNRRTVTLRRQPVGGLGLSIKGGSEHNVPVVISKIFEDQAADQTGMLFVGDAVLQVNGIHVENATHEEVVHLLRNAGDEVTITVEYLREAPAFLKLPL

[25] = molecular target: Inadl_10, Q8NI35
[26] = molecular target: LNX1_3, Q8TBB1
[27] = molecular target: PICK1, Q9NRD5
[28] = molecular target: T10, MPDZ_5, O75970
T10 sequence (O75970 695-796, limits assumed, looked up): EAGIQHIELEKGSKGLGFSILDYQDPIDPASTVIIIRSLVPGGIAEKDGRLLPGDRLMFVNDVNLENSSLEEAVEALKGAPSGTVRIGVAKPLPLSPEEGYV

[29] = plain residues with an end cap or a label only (N-terminal biotin on a linker: ahx)
[30] = plain residues with an end cap or a label only (N-terminal biotin on a linker: ttds)
[31] = plain residues with an end cap or a label only (N-terminal biotin on a linker: gsgsgs; C-terminal amide)

Chain of GRIP2_7, Q9C0E4 (Q9C0E4 934-1023): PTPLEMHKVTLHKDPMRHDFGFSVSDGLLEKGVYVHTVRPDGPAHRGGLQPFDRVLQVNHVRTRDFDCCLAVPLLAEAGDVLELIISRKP
Chain of PICK1, Q9NRD5 (Q9NRD5 17-115): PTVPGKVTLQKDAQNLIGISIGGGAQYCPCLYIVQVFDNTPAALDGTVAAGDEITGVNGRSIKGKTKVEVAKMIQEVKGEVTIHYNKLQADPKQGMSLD
Chain of GRASP, Q7Z6J2 (Q7Z6J2 96-193): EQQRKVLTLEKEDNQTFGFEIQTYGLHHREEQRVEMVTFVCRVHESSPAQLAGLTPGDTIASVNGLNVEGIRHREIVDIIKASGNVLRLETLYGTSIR
Chain of Inadl_10, Q8NI35 (Q8NI35 1673-1763): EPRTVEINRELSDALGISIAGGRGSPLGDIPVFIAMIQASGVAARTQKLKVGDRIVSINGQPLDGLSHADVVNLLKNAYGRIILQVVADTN
Chain of GRIP2_3, Q9C0E4 (Q9C0E4 238-339): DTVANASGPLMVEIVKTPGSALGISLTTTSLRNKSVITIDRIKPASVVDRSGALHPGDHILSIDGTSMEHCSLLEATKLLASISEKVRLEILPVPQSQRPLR
Chain of MAST2, Q6P0Q8 (Q6P0Q8 1099-1202): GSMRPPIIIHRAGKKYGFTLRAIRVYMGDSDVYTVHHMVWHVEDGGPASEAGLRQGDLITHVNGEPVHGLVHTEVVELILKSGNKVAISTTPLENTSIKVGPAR
Chain of GRIP2_5, Q9C0E4 (Q9C0E4 544-642): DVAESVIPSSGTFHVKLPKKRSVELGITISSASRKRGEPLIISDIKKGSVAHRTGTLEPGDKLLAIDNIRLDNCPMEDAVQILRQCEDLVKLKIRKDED
Chain of MAGI3_2, Q5TCQ9 (Q5TCQ9 398-503): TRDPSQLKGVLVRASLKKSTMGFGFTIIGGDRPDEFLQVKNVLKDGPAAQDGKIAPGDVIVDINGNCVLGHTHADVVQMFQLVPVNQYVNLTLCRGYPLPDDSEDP
Chain of DLG2_2, Q15700 (Q15700 189-283): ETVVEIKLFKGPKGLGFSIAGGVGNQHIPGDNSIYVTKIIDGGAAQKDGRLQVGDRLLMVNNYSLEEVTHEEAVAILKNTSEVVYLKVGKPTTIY
Chain of IL16_3, Q14005 (Q14005 1107-1207): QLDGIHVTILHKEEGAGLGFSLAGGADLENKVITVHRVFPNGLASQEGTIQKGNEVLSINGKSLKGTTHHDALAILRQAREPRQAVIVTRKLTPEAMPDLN
Chain of TJP1_3, Q07157 (Q07157 416-512): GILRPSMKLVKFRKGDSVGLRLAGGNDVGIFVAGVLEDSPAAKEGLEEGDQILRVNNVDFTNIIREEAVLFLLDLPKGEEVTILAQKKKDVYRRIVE
Chain of FRMPD4, Q14CM0 (Q14CM0 67-160): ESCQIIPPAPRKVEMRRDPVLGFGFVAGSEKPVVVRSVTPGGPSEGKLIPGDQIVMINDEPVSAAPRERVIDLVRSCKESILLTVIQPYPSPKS
Chain of LDB3, O75112 (O75112 1-94): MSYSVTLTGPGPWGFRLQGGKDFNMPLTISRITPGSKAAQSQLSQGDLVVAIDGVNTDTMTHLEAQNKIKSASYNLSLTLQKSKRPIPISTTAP
Chain of Inadl_5, Q8NI35 (Q8NI35 673-780): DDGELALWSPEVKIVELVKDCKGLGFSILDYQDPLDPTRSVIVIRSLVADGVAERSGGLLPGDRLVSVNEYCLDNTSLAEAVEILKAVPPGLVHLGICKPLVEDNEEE
Chain of LNX1_3, Q8TBB1 (Q8TBB1 500-596): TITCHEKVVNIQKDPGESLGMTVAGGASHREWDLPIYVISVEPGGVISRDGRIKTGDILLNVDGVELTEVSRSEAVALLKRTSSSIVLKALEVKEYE

RRRKRKRTYL [HPV49-L2, P36762]
pKd [1, 29]: 3.49 | pKd [2, 29]: 3.53 | pKd [3, 29]: below the threshold | pKd [4, 29]: 3.68 | pKd [5, 29]: 4.05 | pKd [6, 29]: 4.31 | pKd [7, 29]: 5.4 | pKd [8, 29]: below the threshold | pKd [9, 29]: 3.6 | pKd [10, 29]: 4.37 | pKd [11, 29]: below the threshold | pKd [12, 29]: below the threshold | pKd [13, 29]: 3.72 | pKd [14, 29]: 4.22 | pKd [15, 29]: 4.58 | pKd [16, 29]: below the threshold | pKd [17, 29]: 3.82 | pKd [18, 29]: 3.65 | pKd [19, 29]: below the threshold | pKd [20, 29]: below the threshold | pKd [21, 29]: below the threshold | pKd [22, 29]: 4.28 | pKd [23, 29]: 3.48 | pKd [24, 29]: 3.57 | pKd [25, 29]: below the threshold | pKd [26, 29]: below the threshold | pKd [27, 29]: 3.47 | pKd [28, 29]: below the threshold

FHPLGADSQV [SLC2A1, P11166]
pKd [1, 30]: below the threshold | pKd [2, 30]: below the threshold | pKd [3, 30]: below the threshold | pKd [4, 30]: below the threshold | pKd [5, 30]: below the threshold | pKd [6, 30]: below the threshold | pKd [7, 30]: below the threshold | pKd [8, 30]: below the threshold | pKd [9, 30]: below the threshold | pKd [10, 30]: below the threshold | pKd [11, 30]: below the threshold | pKd [12, 30]: below the threshold | pKd [13, 30]: below the threshold | pKd [14, 30]: 4.25 | pKd [15, 30]: 3.65 | pKd [16, 30]: below the threshold | pKd [17, 30]: 3.88 | pKd [18, 30]: below the threshold | pKd [19, 30]: below the threshold | pKd [20, 30]: below the threshold | pKd [21, 30]: below the threshold | pKd [22, 30]: below the threshold | pKd [23, 30]: 3.77 | pKd [24, 30]: below the threshold | pKd [25, 30]: below the threshold | pKd [26, 30]: below the threshold | pKd [27, 30]: below the threshold | pKd [28, 30]: below the threshold

RPLPRKVSQL [DOCK4, Q8N1I0]
pKd [1, 30]: below the threshold | pKd [2, 30]: below the threshold | pKd [3, 30]: below the threshold | pKd [4, 30]: below the threshold | pKd [5, 30]: below the threshold | pKd [6, 30]: 4.5 | pKd [7, 30]: 4.69 | pKd [8, 30]: below the threshold | pKd [9, 30]: below the threshold | pKd [10, 30]: 3.93 | pKd [11, 30]: below the threshold | pKd [12, 30]: below the threshold | pKd [13, 30]: below the threshold | pKd [14, 30]: 4.58 | pKd [15, 30]: below the threshold | pKd [16, 30]: below the threshold | pKd [17, 30]: 3.94 | pKd [18, 30]: 3.84 | pKd [19, 30]: below the threshold | pKd [20, 30]: below the threshold | pKd [21, 30]: below the threshold | pKd [22, 30]: below the threshold | pKd [23, 30]: 4.41 | pKd [24, 30]: 3.77 | pKd [25, 30]: below the threshold | pKd [26, 30]: below the threshold | pKd [27, 30]: below the threshold | pKd [28, 30]: below the threshold

RAVEEEESRF [PSCDBP, O60759]
pKd [1, 29]: below the threshold | pKd [2, 29]: below the threshold | pKd [3, 29]: below the threshold | pKd [4, 29]: below the threshold | pKd [5, 29]: below the threshold | pKd [6, 29]: below the threshold | pKd [7, 29]: below the threshold | pKd [8, 29]: below the threshold | pKd [9, 29]: below the threshold | pKd [10, 29]: below the threshold | pKd [11, 29]: below the threshold | pKd [12, 29]: below the threshold | pKd [13, 29]: 4.06 | pKd [14, 29]: 4.45 | pKd [15, 29]: below the threshold | pKd [16, 29]: below the threshold | pKd [17, 29]: below the threshold | pKd [18, 29]: below the threshold | pKd [19, 29]: below the threshold | pKd [20, 29]: below the threshold | pKd [21, 29]: below the threshold | pKd [22, 29]: below the threshold | pKd [23, 29]: below the threshold | pKd [24, 29]: below the threshold | pKd [25, 29]: below the threshold | pKd [26, 29]: below the threshold | pKd [27, 29]: below the threshold | pKd [28, 29]: below the threshold

YGIVQETTFDLGGDIH [MLLT4_int, P55196]
pKd [1, 31]: below the threshold | pKd [2, 31]: below the threshold | pKd [3, 31]: below the threshold | pKd [4, 31]: below the threshold | pKd [5, 31]: below the threshold | pKd [6, 31]: 4.9 | pKd [7, 31]: below the threshold | pKd [8, 31]: below the threshold | pKd [9, 31]: below the threshold | pKd [10, 31]: below the threshold | pKd [11, 31]: 3.58 | pKd [12, 31]: below the threshold | pKd [13, 31]: below the threshold | pKd [14, 31]: 4.01 | pKd [15, 31]: below the threshold | pKd [16, 31]: below the threshold | pKd [17, 31]: 4.06 | pKd [18, 31]: below the threshold | pKd [19, 31]: below the threshold | pKd [20, 31]: below the threshold | pKd [21, 31]: below the threshold | pKd [22, 31]: below the threshold | pKd [23, 31]: 3.83 | pKd [24, 31]: below the threshold | pKd [25, 31]: below the threshold | pKd [26, 31]: below the threshold | pKd [27, 31]: below the threshold | pKd [28, 31]: below the threshold
